Assay results published in the supplement of paper PMC10567573.
± gives the standard deviation.

Assay: protein stability index of a GFP-peptide fusion (GPS, HEK-293T) (PSI 1-6); higher = more stable
Conditions: c terminus: a fixed tail appended
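Also: 24-mer peptide tiles fused after GFP, lentivirally expressed, FACS-sorted into six equal bins by GFP/DsRed ratio, decoded by Illumina sequencing, PSI is the read-weighted mean bin number.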

| Sequence | protein stability index (treatment: DMSO) | protein stability index (treatment: MLN4924 1 uM, 8 h) |
| --- | --- | --- |
| SNVQEVRCPVTVCGDVHGQFHDLM [PPP2CA] | 3.54 ± 0.41 | 3.49 ± 0.31 |
| SPRRSLYKLVGSPPWKEAFRQRCL [RPAIN] | 2.27 ± 0.26 | 2.4 ± 0.23 |
| SPRRVGFVGAGRMAGAIAQGLIRA [PYCR3] | 2.66 ± 0.15 | 2.78 ± 0.14 |
| SPSTRGSPNRSLPSPGVLCGSARP [ATF4] | 4.49 ± 0.46 | 4.88 ± 0.18 |
| SPWNFLGDELYEQSDEEQDSVKVA [CLPTM1] | 5.32 ± 0.21 | 5.36 ± 0.4 |
| SQGLAREQHAGTSEGLHLAGTAGH [FBF1] | 4.76 ± 0.16 | 4.84 ± 0.36 |
| SQIRLNREHKETCEMDWSDKMEAY [TEKT4] | 4.47 ± 0.11 | 4.58 ± 0.28 |
| SQSHCYRTCFSPASDGSDFTFLRP [PCDHGC5] | 2.15 ± 0.26 | 2.09 ± 0.16 |
| SRAEPIRTTVFQYPVGWPPVQELP [ZMAT5] | 2.38 ± 0.41 | 2.82 ± 0.34 |
| SRAPQLHLEYRFYKQLGSAGEGLP [CSNK1G1] | 2.73 ± 0.44 | 2.84 ± 0.19 |
| SRKSSIPNNKEIPSHHPTDPVELR [PTPRD] | 4.83 ± 0.1 | 5.04 ± 0.35 |
| SRREIRKIMGVEEEDDDDDDDDNL [ANKRD40] | 5.44 ± 0.12 | 5.53 ± 0.16 |
| SRVAGFNPALQLILTRTDKTLNKK [TOR1AIP2] | 4.25 ± 0.3 | 4.33 ± 0.18 |
| SRVTDAAFNFLLVWYYCTLTIRES [TMEM120A] | 3 ± 0.1 | 2.62 ± 0.45 |
| SRYRSLRPNRQLGSMVEIAKQLQA [TRIM39] | 2.74 ± 0.28 | 2.92 ± 0.34 |
| SSEHVTESVADLLALEEPVDYKQS [SLC6A17] | 5.17 ± 0.26 | 5.25 ± 0.34 |
| SSETPPPPPPPNEINPPPHTMEEE [EIF5] | 5.52 ± 0.31 | 5.46 ± 0.3 |
| SSFSDPFFVVETLCIIWFSFELLV [KCNA3] | 3.06 ± 0.48 | 3.2 ± 0.32 |
| SSMLTGILWDTLLRLCAWGLASWP [POMT2] | 3.12 ± 0.62 | 2.66 ± 0.61 |
| SSPVTTLTQTMHDLAGLGSETPKS [CDC25B] | 4.97 ± 0.31 | 5.13 ± 0.14 |
| SSSDLVMRARDSVYHIECFRCSVC [ISL2] | 2.5 ± 0.33 | 2.72 ± 0.51 |
| SSSSSSSSSSSSSSSSGPGHGEPD [TMEM40] | 5.49 ± 0.36 | 5.4 ± 0.35 |
| SSYSSCYSFGSGGGYGSSFGGVDG [KRT17] | 2.69 ± 0.38 | 2.53 ± 0.2 |

| Sequence | protein stability index (treatment: DMSO) | protein stability index (treatment: MLN4924 1 uM, 8 h) |
| --- | --- | --- |
| STFASLIGPFGGFFASGFKRAFKI [CDS2] | 2.21 ± 0.44 | 2.37 ± 0.38 |
| STRQTQSWTAVTPQQTWASPAEVV [C18orf25] | 3.63 ± 0.078 | 3.98 ± 0.24 |
| STSQGCAQPQGAPCCSSSPEEPLN [FEM1A] | 5.37 ± 0.23 | 5.32 ± 0.15 |
| STWALYGRAVDQDKVLRFAQQIRL [MYORG] | 2.29 ± 0.23 | 2.25 ± 0.33 |
| SVLNGKFANLIKEFVIIDCRYPYE [CDC25A] | 2.63 ± 0.36 | 2.55 ± 1 |
| SVNWRTGSFHGPGHISLRRENSSD [DLC1] | 3.78 ± 0.21 | 3.86 ± 0.2 |
| SVREVTQIKCIELKSELGRKWHKA [P2RY14] | 2.83 ± 0.24 | 3.23 ± 0.29 |
| SWWADLRALARNLIFGLITCLTGV [SPNS1] | 3.88 ± 0.43 | 3.92 ± 0.24 |
| SWYHWKGFEFSVPFTEMKLRPRNF [TNXB] | 2.47 ± 0.81 | 3.15 ± 0.53 |
| TCSRVDYCLLSDHGCEYSCVNMDR [MATN2] | 2.84 ± 0.24 | 2.82 ± 0.32 |
| TCVAVGSPMPYVKWMLGAEDLTPE [PTPRD] | 2.97 ± 0.33 | 3.14 ± 0.38 |
| TDANLPSGGKGFKLRRQPSEPKRS [RAB22A] | 4.88 ± 0.41 | 5.08 ± 0.17 |
| TDGGGWLVFQRRMDGQTDFWRDWE [TNXB] | 2.33 ± 0.53 | 2.25 ± 0.65 |
| TDGMILGPEDLSYQIYDVSGESNS [LARP4] | 4.71 ± 0.22 | 4.58 ± 0.37 |
| TEDSPLGTVVALLNVHDLDSEQNG [PCDHGA10] | 4.86 ± 0.18 | 4.94 ± 0.27 |
| TEKLKANAESSKTWLKGKFTELRL [TRIM14] | 2.53 ± 0.43 | 2.48 ± 0.42 |
| TEPEDDRGPVVPKHSTFGQSLTQR [GNAS] | 4.89 ± 0.31 | 4.85 ± 0.2 |
| TGEFLKLPFERLAFVLSSNSLKHC [KLHL13] | 2.55 ± 0.73 | 2.85 ± 0.52 |
| TGTVHRIDNTTVIYNSNIFTDPFF [KCNA1] | 2.89 ± 0.27 | 3.05 ± 0.2 |
| THQHWQQFEPQLTLWDVFGANKEV [RSAD1] | 2.65 ± 0.34 | 2.66 ± 0.24 |
| TIEELQQKILCAKAENARLVVNID [KRT34] | 3.37 ± 0.31 | 3.41 ± 0.48 |
| TIVNFPITNVDLREYLSEEVQAVH [USP39] | 2.92 ± 0.18 | 3.41 ± 0.41 |
| TKLPENQAIQMRLVDVACKHLTDT [INTS4] | 3.41 ± 0.11 | 3.58 ± 0.069 |

| Sequence | protein stability index (treatment: DMSO) | protein stability index (treatment: MLN4924 1 uM, 8 h) |
| --- | --- | --- |
| TKRDSFLKRLYRAPIDWIEEYTTG [ALG2] | 2.18 ± 0.54 | 2.23 ± 0.4 |
| TLEKCEKVKTMEVTSVSIELEKNF [TRIM39] | 4.16 ± 0.21 | 4.15 ± 0.23 |
| TLGYMPTEMELLEVSQHIKMRMGG [CABP4] | 2.96 ± 0.18 | 2.94 ± 0.54 |
| TNSDTPTSFNHMDSDKLSGLWSRI [TOR1AIP2] | 3.21 ± 0.21 | 3.1 ± 0.39 |
| TPLTEGSEDLDGHSDPEESFARDL [RETREG3] | 5.51 ± 0.18 | 5.524 ± 0.053 |
| TPVDMWSVGCIFAEMFRRKPLFCG [CDK4] | 2.98 ± 0.97 | 2.64 ± 0.61 |
| TQESTFQELCEGLLEESDGEGEPG [NOP53] | 5.59 ± 0.22 | 5.51 ± 0.22 |
| TRDGFKLVMASLYHIYVALEEEIE [HMOX1] | 2.15 ± 0.52 | 2.56 ± 0.51 |
| TRLFHDSAVTSVRILQDEQYLMAS [DCAF4] | 2.76 ± 0.18 | 2.88 ± 0.25 |
| TRVPRAAIVFTDGRAQDDVSEWAS [MATN2] | 4.34 ± 0.36 | 4.48 ± 0.45 |
| TSILSRLPPEALTAPSGGQWGAEP [RNF208] | 3.94 ± 0.14 | 4.05 ± 0.11 |
| TSYCELLQNKVPLLGSSTACIVVL [PPTC7] | 2.8 ± 0.1 | 2.55 ± 0.09 |
| TTDPDLILEVLRSSPMVQVDEKGE [LARP4] | 4.61 ± 0.32 | 4.73 ± 0.24 |
| TTKCVRQYEGHVNEYAYLPLHVHE [DCAF4] | 2.92 ± 0.39 | 3.17 ± 0.2 |
| TTSEEAVGGATPDQTTSEETVGGA [HDAC6] | 5.5 ± 0.32 | 5.57 ± 0.27 |
| TTSTLASSLPGHAAKTLPGGAGKG [EHMT1] | 4.77 ± 0.15 | 5.28 ± 0.16 |
| TTVVVFVASMVLGECRQMSSSSQI [CLCN6] | 3 ± 0.49 | 3.22 ± 0.24 |
| TVQIICNTGYRLQNNENNISCVER [CFHR2] | 2.44 ± 0.4 | 2.64 ± 0.25 |
| TYEVRMRTNLPIFKLKESCVRRRY [SNX12] | 2.6 ± 0.15 | 2.54 ± 0.23 |
| VAFVCAFSEALAEGAVKMGMPSSL [PYCR3] | 3.46 ± 0.41 | 2.42 ± 0.36 |
| VAKCLIGVNYPKPMVNHAEASRLN [CRY1] | 2.5 ± 0.14 | 2.46 ± 0.38 |
| VAVQEQEIARREKELEARVRKPAE [FLOT1] | 5.44 ± 0.42 | 5.31 ± 0.17 |
| VCIVQKNDTKKMYAMKYMNKQKCV [STK32A] | 2.21 ± 0.11 | 2.5 ± 0.45 |

| Sequence | protein stability index (treatment: DMSO) | protein stability index (treatment: MLN4924 1 uM, 8 h) |
| --- | --- | --- |
| VCYQYPGYRGYQYILECDHHGGDY [CRYBA1] | 2.35 ± 0.4 | 2.08 ± 0.18 |
| VDEAAAESPSFLSLRKGASLSNGQ [NCK2] | 4.83 ± 0.14 | 5.08 ± 0.23 |
| VDSHHEYPAMTFYSPAVMNYSIPS [ESR2] | 2.8 ± 0.18 | 2.89 ± 0.24 |
| VEYFQQSAVAMYMLYEKQKQQNVA [ZBED1] | 2.4 ± 0.18 | 2.14 ± 0.28 |
| VFLHLLLLFKLVAPVTFRHHRYDD [CPN1] | 3.12 ± 0.13 | 3.14 ± 0.23 |
| VFSQMIHLNETVKAPDIECVLRCS [FEM1B] | 2.13 ± 0.36 | 2.11 ± 0.35 |
| VGLAVVNGQLMAVGGFDGTTYLKT [KLHL20] | 2.69 ± 0.54 | 2.23 ± 0.19 |
| VGTMVGADILAGREDNSGSDVLIG [SLC35F2] | 4.79 ± 0.26 | 4.55 ± 0.22 |
| VHTEFTLRNFNSAKDMKKAVAHMK [MATN2] | 3.95 ± 0.17 | 4.03 ± 0.22 |
| VHYAKVQLRFQHSQDVSDCYLELF [PLEKHN1] | 2.88 ± 0.82 | 2.76 ± 0.52 |
| VIFLLLFAPFIVYYFIMACDQYSC [DHCR7] | 2.41 ± 0.19 | 2.39 ± 0.33 |
| VISCEFAHNSNWYITFQSDTDAQQ [LARP4] | 2.47 ± 0.23 | 2.56 ± 0.19 |
| VKCNGALINTSDTVQHGAVYSLEP [SDE2] | 3.57 ± 0.5 | 3.75 ± 0.33 |
| VKSIVVKGYNIWTGGPDACLRCWD [TLE6] | 2.37 ± 0.3 | 2.24 ± 0.43 |
| VLAGAAEEGFMTAELAGVIKRLWK [GNAI1] | 2.38 ± 0.34 | 2.45 ± 0.057 |
| VLIRYPNSLDTTSWAWRGPGVLKV [LPCAT4] | 2.77 ± 0.23 | 2.69 ± 0.8 |
| VLLMHMPAEQAFWCLVQICEKYLP [TBC1D10A] | 2.96 ± 0.37 | 2.88 ± 0.57 |
| VLSSTTLLPRQPLPLGIKVYEDET [PALM] | 4.23 ± 0.21 | 4.18 ± 0.16 |
| VLSVSKILHIPQVTKLCVQFLNDQ [KLHL14] | 2.52 ± 0.48 | 2.29 ± 0.35 |
| VLVEKYGWPHEDAAQFTDFLIPML [SRPK2] | 2.38 ± 0.26 | 2.4 ± 0.26 |
